Assay results reported in publication PMC7545189, “Structural characterization of the ICOS/ICOS-L immune complex reveals high molecular mimicry by therapeutic antibodies” (Nature Communications, 2020).

B1: human ICOS-L ectodomain (residues 19-248), His-tagged, immobilised on Ni-NTA biosensors (ligand)
chain: DTQEKEVRAMVGSDVELSCACPEGSRFDLNDVYVYWQTSESKTVVTYHIPQNSSLENVDSRYRNRALMSPAGMLRGDFSLRLFNVTPQDEQKFHCLVLSQSLGFQEVLSVEVTLHVAANFSVPVVSAPHSPSQDELTFTCTSINGYPRPNVYWINKTDNSLLDQALQNDTVFLNMRGLYDVVSVLRIARTPSVNIGCCIENVLLQQNLTVGSQTGNDIGERDKITENPVS

What was measured:
[1] = target: T1, human ICOS ectodomain N110Q (N110 glycan knock-out mutant), analyte (human, UniProt Q9Y6W8 21-138, N110Q); test: BLI
T1 sequence: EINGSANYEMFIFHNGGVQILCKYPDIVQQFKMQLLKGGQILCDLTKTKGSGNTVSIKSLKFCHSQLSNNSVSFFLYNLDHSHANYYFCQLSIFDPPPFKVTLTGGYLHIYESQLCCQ

[2] = target: T1, human ICOS ectodomain N110Q (N110 …); test: BLI; remark: listed apart in the source
[3] = target: T2, human ICOS ectodomain (residues 21-138), untagged, disulfide-linked homodimer (human, UniProt Q9Y6W8 21-138); test: BLI; ICOS-L immobilized
T2 chain: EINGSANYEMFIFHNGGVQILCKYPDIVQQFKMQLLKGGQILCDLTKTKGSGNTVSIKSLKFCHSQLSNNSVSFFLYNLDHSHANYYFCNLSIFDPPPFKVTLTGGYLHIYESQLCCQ

[4] = target: T2, human ICOS ectodomain (residues …); test: BLI; ICOS-L immobilized
[5] = target: B1; test: BLI
[6] = target: B1; test: BLI
[7] = target: T3, human ICOS-L ectodomain (residues 19-248), His-tagged, immobilised on Ni-NTA biosensors (human, UniProt O75144); test: BLI; His-tagged ICOS or ICOS-L on Ni-NTA biosensors, Fabs as analytes (prezalumab 1:2 serial dilutions from 31 nM); PBS pH 7.4, 0.01% BSA, 0.002% Tween; 1:1 fit; conditions: both partners purified
T3 construct: also called ICOS ligand; CD275; source: HEK 293F, transiently transfected, purified from the supernatant (HisTrap Ni-NTA); not shown: His6, C-terminal, kept

[8] = target: T4, human ICOS ectodomain N110Q, His-tagged, immobilised for STIM003 binding (human, UniProt Q9Y6W8 21-138, N110Q); test: BLI
T4 sequence: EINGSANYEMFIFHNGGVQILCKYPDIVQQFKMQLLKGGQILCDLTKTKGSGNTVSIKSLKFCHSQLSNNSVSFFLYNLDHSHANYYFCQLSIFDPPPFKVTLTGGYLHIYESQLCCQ

[9] = target: T5, human ICOS ectodomain (residues 21-138), His-tagged, immobilised on Ni-NTA biosensors (human, UniProt Q9Y6W8 21-138); test: BLI
T5 chain: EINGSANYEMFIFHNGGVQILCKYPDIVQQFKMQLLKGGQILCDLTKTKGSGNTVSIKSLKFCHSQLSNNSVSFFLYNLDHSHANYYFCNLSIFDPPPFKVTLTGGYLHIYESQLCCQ

[10] = target: T4, human ICOS ectodomain N110Q, …; test: BLI; remark: listed apart in the source
[11] = target: T5, human ICOS ectodomain (residues …); test: BLI
[12] = target: T6, human ICOS ectodomain (residues 21-138), His-tagged, immobilised on Ni-NTA biosensors (human, UniProt Q9Y6W8); test: BLI; His-tagged ICOS or ICOS-L on Ni-NTA biosensors, Fabs as analytes (prezalumab 1:2 serial dilutions from 31 nM); PBS pH 7.4, 0.01% BSA, 0.002% Tween; 1:1 fit; conditions: both partners purified
T6 construct: human ICOS ectodomain, UniProtKB Q9Y6W8, residues 21-138, followed by a TEV cleavage site; The His6 tag of the vector lies C-terminal of TEV site and Venus, so the His-tagged form used for loading is probably the undigested ICOS-TEV-Venus-His6 fusion; also called inducible T-cell co-stimulator; CD278; source: HEK 293F, transiently transfected, purified from the supernatant (HisTrap Ni-NTA); not …

[13] = target: T7, human ICOS-L ectodomain (residues 19-248), untagged monomer (human, UniProt O75144 19-248); test: BLI; His-tagged ICOS on Ni-NTA biosensors (0.8 nm), untagged ICOS-L as analyte, 1:2 serial dilutions from 500 nM; PBS pH 7.4, 0.01% BSA, 0.002% Tween; 180 s association and dissociation; 1:1 fit; conditions: both partners purified
T7 construct: Residues of the TEV site probably remain at the C-terminus after cleavage; also called ICOS-L ectodomain monomer; CD275; source: HEK 293F, transiently transfected, purified (HisTrap Ni-NTA, TEV digestion, second Ni-NTA, Superdex 200); not shown: Venus (monomeric variant), C-terminal, cleaved; His6, C-terminal, cleaved
T7 sequence (looked up): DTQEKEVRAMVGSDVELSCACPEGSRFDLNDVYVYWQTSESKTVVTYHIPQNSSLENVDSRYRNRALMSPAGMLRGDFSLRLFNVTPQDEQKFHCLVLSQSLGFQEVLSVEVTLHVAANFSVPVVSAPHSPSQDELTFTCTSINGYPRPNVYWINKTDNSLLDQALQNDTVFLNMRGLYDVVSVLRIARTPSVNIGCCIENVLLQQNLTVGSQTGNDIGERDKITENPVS

Binder: B1
- koff [1]: 0.00071 s⁻¹
- Kd [2]: 0.7 nM
- koff [3]: 0.0012 s⁻¹
- Kd [4]: 3 nM

B2: prezalumab Fab (purified, for BLI) (Fab, V domains shown)
VH: EVQLVESGGGLVQPGGSLRLSCAASGFTFSSYWMSWVRQAPGKGLEWVAYIKQDGNEKYYVDSVKGRFTISRDNAKNSLYLQMNSLRAEDTAVYYCAREGILWFGDLPTFWGQGTLVTVSS
VL: DIQMTQSPSSLSASVGDRVTITCRASQGISNWLAWYQQKPEKAPKSLIYAASSLQSGVPSRFSGSGSGTDFTLTISSLQPEDFATYYCQQYDSYPRTFGQGTKVEIK
notes: Fab heavy chain of prezalumab; Fab light chain of prezalumab; Purified on KappaSelect; also called humanized monoclonal anti ICOS-L antibody; source: HEK 293F, transiently co-transfected LC and HC, purified (KappaSelect, MonoS, Superdex 200)
- koff [5]: 0.0045 s⁻¹
- Kd [6]: 5.5 nM
- binding result [7]: binds

B3: STIM003 Fab (purified, for BLI) (Fab, V domains shown)
VH: EVQLVESGGGVVRPGGSLRLSCVASGVTFDDYGMSWVRQAPGKGLEWVSGINWNGGDTDYSDSVKGRFTISRDNAKNSLYLQMNSLRAEDTALYYCARDFYGSGSYYHVPFDYWGQGILVTVSS
VL: EIVLTQSPGTLSLSPGERATLSCRASQSVSRSYLAWYQQKRGQAPRLLIYGASSRATGIPDRFSGDGSGTDFTLSISRLEPEDFAVYYCHQYDMSPFTFGPGTKVDIK
notes: Fab heavy chain of STIM003; Fab light chain (kappa) of STIM003; Kappa light chain (KappaSelect purification); also called anti-ICOS monoclonal antibody; source: HEK 293F, transiently co-transfected LC and HC, purified (KappaSelect, MonoS, Superdex 200)
- koff [8]: 0.001 s⁻¹
- koff [9]: 0.00072 s⁻¹
- Kd [10]: 1.8 nM
- Kd [11]: 2 nM
- binding result [12]: binds

B4: human ICOS ectodomain (residues 21-138), His-tagged, immobilised on Ni-NTA biosensors (receptor, UniProt Q9Y6W8 21-138, looked up)
chain: EINGSANYEMFIFHNGGVQILCKYPDIVQQFKMQLLKGGQILCDLTKTKGSGNTVSIKSLKFCHSQLSNNSVSFFLYNLDHSHANYYFCNLSIFDPPPFKVTLTGGYLHIYESQLCCQ
notes: human ICOS ectodomain, UniProtKB Q9Y6W8, residues 21-138, followed by a TEV cleavage site; The His6 tag of the vector lies C-terminal of TEV site and Venus, so the His-tagged form used for loading is probably the undigested ICOS-TEV-Venus-His6 fusion; also called inducible T-cell co-stimulator; CD278; source: HEK 293F, transiently transfected, purified from the supernatant (HisTrap Ni-NTA); not …
- Kd [13]: 722 nM
- koff [13]: 0.16 s⁻¹
